The target in the assay is Type 4 LDH (BL105A_0985), aromatic lactate dehydrogenase (ALDH) of B. longum ssp. longum 105-A (Bifidobacterium longum ssp. longum 105-A) (UniProt Q8G593). The assay can be described thus: SEC; native molecular mass of the purified recombinant enzyme estimated by size exclusion chromatography (Supplementary Fig. 7b); dimer of the 33.9 kDa chain.

In the case of “Type 4 LDH (BL105A_0985), aromatic lactate dehydrogenase (ALDH) of B. longum ssp. longum 105-A (from UniProt Q8G593 1-545) (enzyme)”, the stoichiometry N was 2.

The values are drawn from article PMC8556157.
